Molecular target: dna2-D657A (nuclease-dead);RPA (Saccharomyces cerevisiae;Saccharomyces …, UniProt P38859;P22336;P26754;P26755 1-1522;1-621;1-273;1-122, D657A|)
Assay: EMSA; ternary complex; EMSA: 25 mM Tris-HCl pH 7.5, 150 mM KCl, 1 mM DTT, 100 µg/mL BSA, 5 nM DNA, 30 °C 10 min, 4% native PAGE in 0.2x TBE; DNA curtains: 50 or 150 mM NaCl, 0.1 nM RPA-GFP
Details: protein: recombinant;recombinant; tags: His6, FLAG;none; copies: 1;1;1;1; label: 32P 5'-end; 5' overhang 30 nt (dT30), 20 bp duplex

Chain of dna2-D657A (nuclease-dead);RPA (P38859 whole entry D657A, chain 1 of 4): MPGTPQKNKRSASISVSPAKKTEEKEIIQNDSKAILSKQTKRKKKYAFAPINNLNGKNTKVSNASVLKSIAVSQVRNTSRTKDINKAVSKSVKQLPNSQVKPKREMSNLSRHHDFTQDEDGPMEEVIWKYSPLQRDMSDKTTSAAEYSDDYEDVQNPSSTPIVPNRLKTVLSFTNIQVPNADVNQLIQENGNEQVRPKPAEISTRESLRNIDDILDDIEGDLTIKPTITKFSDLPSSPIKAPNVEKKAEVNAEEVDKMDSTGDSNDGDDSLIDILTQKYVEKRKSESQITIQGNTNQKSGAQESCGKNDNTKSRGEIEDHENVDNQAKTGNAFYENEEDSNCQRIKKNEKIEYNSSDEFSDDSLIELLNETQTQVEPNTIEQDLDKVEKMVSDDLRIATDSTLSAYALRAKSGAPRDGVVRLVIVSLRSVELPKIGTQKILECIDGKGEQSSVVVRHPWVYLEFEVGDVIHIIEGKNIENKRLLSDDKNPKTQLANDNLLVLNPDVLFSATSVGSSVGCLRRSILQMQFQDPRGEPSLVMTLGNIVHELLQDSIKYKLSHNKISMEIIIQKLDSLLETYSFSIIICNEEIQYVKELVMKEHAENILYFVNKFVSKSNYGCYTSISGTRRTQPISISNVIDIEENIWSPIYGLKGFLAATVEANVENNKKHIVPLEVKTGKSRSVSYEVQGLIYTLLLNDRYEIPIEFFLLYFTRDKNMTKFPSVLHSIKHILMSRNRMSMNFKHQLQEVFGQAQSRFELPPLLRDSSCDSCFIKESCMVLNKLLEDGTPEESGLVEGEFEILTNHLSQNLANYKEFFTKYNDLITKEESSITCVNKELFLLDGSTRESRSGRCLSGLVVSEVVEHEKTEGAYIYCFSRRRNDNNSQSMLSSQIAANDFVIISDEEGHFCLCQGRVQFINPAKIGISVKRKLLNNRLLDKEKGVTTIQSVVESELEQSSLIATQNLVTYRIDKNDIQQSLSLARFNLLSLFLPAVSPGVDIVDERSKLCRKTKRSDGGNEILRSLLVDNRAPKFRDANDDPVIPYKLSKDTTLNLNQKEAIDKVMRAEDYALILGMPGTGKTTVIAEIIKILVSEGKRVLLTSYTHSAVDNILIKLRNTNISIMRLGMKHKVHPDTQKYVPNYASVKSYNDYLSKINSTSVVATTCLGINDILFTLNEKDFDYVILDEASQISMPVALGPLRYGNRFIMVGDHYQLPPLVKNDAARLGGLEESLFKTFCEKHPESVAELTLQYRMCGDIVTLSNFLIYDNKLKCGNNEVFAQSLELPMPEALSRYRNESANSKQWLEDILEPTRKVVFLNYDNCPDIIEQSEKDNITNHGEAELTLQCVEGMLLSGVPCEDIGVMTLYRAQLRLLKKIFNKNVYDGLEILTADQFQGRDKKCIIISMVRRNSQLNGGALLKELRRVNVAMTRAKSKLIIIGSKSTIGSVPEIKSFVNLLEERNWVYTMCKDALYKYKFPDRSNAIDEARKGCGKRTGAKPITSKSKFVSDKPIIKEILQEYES
Chain of dna2-D657A (nuclease-dead);RPA (P22336 whole entry, chain 2 of 4): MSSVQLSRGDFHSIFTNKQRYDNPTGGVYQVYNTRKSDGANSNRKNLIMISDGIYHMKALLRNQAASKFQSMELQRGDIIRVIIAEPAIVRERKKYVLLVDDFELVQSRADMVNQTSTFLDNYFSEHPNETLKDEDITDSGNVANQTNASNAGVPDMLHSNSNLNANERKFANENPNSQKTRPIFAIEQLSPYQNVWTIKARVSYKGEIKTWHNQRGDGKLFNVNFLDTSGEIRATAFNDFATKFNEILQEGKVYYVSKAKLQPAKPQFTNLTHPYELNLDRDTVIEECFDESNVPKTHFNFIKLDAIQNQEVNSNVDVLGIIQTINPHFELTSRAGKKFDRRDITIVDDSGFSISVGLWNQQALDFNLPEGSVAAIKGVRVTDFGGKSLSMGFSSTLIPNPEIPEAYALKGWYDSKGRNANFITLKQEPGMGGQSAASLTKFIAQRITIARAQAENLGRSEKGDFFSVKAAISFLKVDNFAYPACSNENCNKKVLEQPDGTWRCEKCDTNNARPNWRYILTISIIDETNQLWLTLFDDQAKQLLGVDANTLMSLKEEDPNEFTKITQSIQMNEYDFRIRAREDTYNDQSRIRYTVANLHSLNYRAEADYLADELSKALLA
Chain of dna2-D657A (nuclease-dead);RPA (P26754 whole entry, chain 3 of 4): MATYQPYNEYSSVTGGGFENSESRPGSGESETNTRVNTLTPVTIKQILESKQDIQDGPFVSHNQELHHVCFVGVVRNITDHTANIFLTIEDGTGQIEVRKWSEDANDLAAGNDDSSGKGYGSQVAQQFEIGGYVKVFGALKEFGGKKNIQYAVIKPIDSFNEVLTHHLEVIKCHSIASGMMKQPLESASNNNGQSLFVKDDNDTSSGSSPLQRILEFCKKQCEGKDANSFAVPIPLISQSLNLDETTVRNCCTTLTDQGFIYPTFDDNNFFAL
Chain of dna2-D657A (nuclease-dead);RPA (P26755 whole entry, chain 4 of 4): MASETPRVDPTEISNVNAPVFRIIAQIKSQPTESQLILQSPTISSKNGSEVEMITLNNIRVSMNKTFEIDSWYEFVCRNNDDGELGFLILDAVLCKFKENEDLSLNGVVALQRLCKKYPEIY

B1: 5'-overhanging dT(30) DNA (S10+S11) (mixed)
DNA 1: TTTTTTTTTTTTTTTTTTTTTTTTTTTTTTTTGATAAGAGGTCATTTGAA
DNA 2: TTCAAATGACCTCTTATCAA
binding result: binds

Source: article PMC8766458, “Deciphering the mechanism of processive ssDNA digestion by the Dna2-RPA ensemble” (Nature Communications, 2022)
